The values below are quoted from earlier work in US20100069292A1, “INSULIN WITH A BASAL RELEASE PROFILE” (Biodel, Inc., priority 2008, published 2010).

For data set [1] the following is noted: patients, compared with NPH insulin.
The conditions of data set [2]: in vivo.

Turning to insulin glargine, the “risk of low blood glucose (hypoglycemia)” value in data set [1] is on record as “much lower risk of low blood glucose (hypoglycemia) than the patients who took NPH insulin”. Further, the “duration of blood glucose lowering after injection” value in data set [2] is given as “up to 24 hours”.
